The subject of the series is FLI1-CTD K4bR. Nature of the series: EMSA. The note with it: non-acetylated baseline; normalized to Coomassie; Non-radioactive EMSA: 1 ug protein, 500 fmol biotinylated dsDNA, binding buffer per Uren et al. 2004 (not given); 6% gel in 0.5x TBE; protein stock 20 mM …. (In EMSA bound probe runs differently from free probe, usually more slowly.)

In the case of “ets-binding site oligonucleotide (wild type)”, the binding signal (fold vs non-acetylated wild type) stood at 1.
